Data published in patent US20220064276A1 (SCHOLAR ROCK, published 2022).
Positions count from the first letter of the chain named. Values joined by “and” are separate entries in the source; they are usually repeats but may differ in a detail not shown here. Equal values may be shown once. Read-outs that look alike come from different tables or passages of the source.

B1: SR-AB31 (antibody, IgG1, V domains shown)
VH: QVQLVESGGGVVQPGRSLRLSCAASGFTFRSYVMHWVRQAPGKGLEWVAVISHEGSLKYYADSVKGRFTISRDNSKNTLYLQMNSLRAEDTAVYYCAVPRIAARRGGFGYWGQGTLVTVSS
VL: NFMLTQPHSVSESPGKTVTISCTRSSGNIDNNYVQWYQQRPGSSPTTVIYEDNQRPSGVPDRFSGSIDSSSNSASLTISGLKTEDEADYYCQSYDFNNQGVVFGGGTKLTVL
notes: Cycle 3, lineage SR-AB22
B2: SR-AB34 (antibody, IgG1, V domains shown)
VH: B1 VH
VL: B1 VL with F96Y, N97D, N98A
notes: Cycle 3, lineage SR-AB22
B3: SR-AB37 (antibody, IgG1, V domains shown)
VH: B1 VH
VL: B1 VL with N28L, N31D, F96S, N97D, N98L, G100R
notes: Cycle 3, lineage SR-AB22
B4: SR-AB38 (antibody, IgG1, V domains shown)
VH: B1 VH
VL: B1 VL with N28S, N53F, Q54I, F96D, N97D, N98L
notes: Cycle 3, lineage SR-AB22
B5: SR-AB39 (antibody, IgG1, V domains shown)
VH: B1 VH
VL: B1 VL with N28L, N31D, N53A, F96H, N97D, N98E
notes: Cycle 3, lineage SR-AB22
B6: SR-AB40 (antibody, IgG1, V domains shown)
VH: B1 VH with V98R
VL: B1 VL with F96Y, N97S
notes: Cycle 3, lineage SR-AB23
B7: SR-AB41 (antibody, IgG1, V domains shown)
VH: B1 VH with V98R
VL: B1 VL with F96Y, N97D, G100A
notes: Cycle 3, lineage SR-AB23
B8: SR-AB42 (antibody, IgG1, V domains shown)
VH: B1 VH with V98R
VL: B1 VL with F96Y, N97D, N98T
notes: Cycle 3, lineage SR-AB23
B9: SR-AB44 (antibody, IgG1, V domains shown)
VH: B1 VH with V98R
VL: B1 VL with S26H, N31D, Q54V, F96S, N97D, G100L
notes: Cycle 3, lineage SR-AB23
B10: SR-AB45 (antibody, IgG1, V domains shown)
VH: B1 VH with V98R
VL: B1 VL with N28A, N31D, N53F, F96D, N97D, N98L
notes: Cycle 3, lineage SR-AB23
B11: SR-AB56-HuFab (Fab, V domains shown)
VH: B1 VH with L57G, V98L, Y110S
VL: B1 VL with N31Y, Q54V, F96Y, N97D, N98T
notes: Human Fab; also called SR-Ab56 Fab
B12: SR-AB57-HuFab (Fab, V domains shown)
VH: B1 VH with L57G, V98L, Y110S
VL: B1 VL with N31Y, Q54V, S93G, F96W, N97D, N98T
notes: Human Fab; also called SR-AB57 Fab
B13: SR-AB58-HuFab (Fab, V domains shown)
VH: B1 VH with L57G, V98L, Y110T
VL: B1 VL with N31Y, Q54V, F96S, N97D, G100R
notes: Human Fab; also called SR-AB58 Fab
B14: SR-AB59-HuFab (Fab, V domains shown)
VH: B1 VH with L57G, V98L, Y110T
VL: B1 VL with N31Y, Q54V, F96Y, N97D, G100A
notes: Human Fab; also called SR-AB59 Fab
B15: SR-AB60-HuFab (Fab, V domains shown)
VH: B1 VH with L57G, V98L, Y110T
VL: B1 VL with N31Y, Q54V, F96Y, N97D, N98T
notes: Human Fab; also called SR-AB60 Fab
B16: SR-AB61-HuFab (Fab, V domains shown)
VH: B1 VH with L57G, V98L, Y110T
VL: B1 VL with N31Y, Q54V, S93G, F96W, N97D, N98T
notes: Human Fab; also called SR-AB61 Fab

Legend:
[1] = target: T1, human GARP-proTGFβ1 complex (human, UniProt Q14392 18-627; P01137 30-390, limits assumed); assay: Octet BLI, Table 10 (repeats Table 9)
T1 construct: Exemplary entries; also called Hu GARP-proTGFβ1; huGARP proTGFb1
Description: (§1) Binding affinities of the optimized antibodies were measured by Octet against human LTBP1-proTGFβ1, human LTBP3-proTGFβ1, mouse LTBP1-proTGFβ1, mouse LTBP3-proTGFβ1, and GARP-proTGFβ1 complexes, essentially as described in Example 6. […] The antigens were allowed to associate for 3 minutes followed by a 5-minute dissociation. Kinetics buffer (ForteBio®) was used throughout the experiment, and KD was determined using a 1:1 fitting model for each antibody antigen pair.
Table 9 presents the binding profile and affinity data for the indicated LTBP complex-specific antibodies (IgG1-agly) identified from the light chain optimization cycle 3, determined by Octet.

[2] = target: T2, mouse LTBP1-proTGFβ1 complex (mouse, UniProt Q8CG19 339-1712; P04202 30-390); assay: cell-based or functional assay
[3] = target: T3, LTBP-proTGFβ1: transfected human proTGFβ1 presented by endogenous LTBP1/3 of LN229 cells (human); assay: cell-based or functional assay
[4] = target: T2, mouse LTBP1-proTGFβ1 complex; assay: Octet BLI, IgG captured
Description: as §1

[5] = target: T4, human LTBP1-proTGFβ1 complex (human, UniProt Q14766 347-1721; P01137 30-390); assay: Octet BLI, IgG captured
T4 construct: Large latent complex: one presenting molecule disulfide-linked to a proTGFβ1 dimer; also called Hu LTBP1-proTGFβ1; huLTBP1 proTGFβ1
Description: as §1

[6] = target: T1, human GARP-proTGFβ1 complex; assay: Octet BLI, IgG captured
Description: as §1

[7] = target: T5, mouse LTBP3-proTGFβ1 complex (mouse, UniProt Q61810 41-1245; P04202 30-390, limits assumed); assay: Octet BLI, IgG captured
T5 construct: Exemplary entries; also called Mo LTBP3-proTGFβ1; Murine LTBP3 proTGFb1
Description: as §1

[8] = target: T6, human LTBP3-proTGFβ1 complex (human, UniProt Q9NS15 44-1303; P01137 30-390, limits assumed); assay: Octet BLI, IgG captured
T6 construct: Exemplary entries; also called Hu LTBP3-proTGFβ1; huLTBP3 proTGFb1
Description: as §1

[9] = target: T1, human GARP-proTGFβ1 complex; assay: Octet (bio-layer interferometry), response at 200 nM antigen; 0.1 nm cutoff designates meaningful binding
Description: This experiment was performed at 200, 100, 50, and 25 nM human GARP proTGFb1 and human LTBP1 proTGFbl. […] Surface plasmon resonance (SPR)-based assays

[10] = target: T2, mouse LTBP1-proTGFβ1 complex; assay: cell-based or functional assay; remark: listed apart in the source
[11] = target: T3, LTBP-proTGFβ1: transfected human …; assay: cell-based or functional assay; remark: listed apart in the source
[12] = target: T4, human LTBP1-proTGFβ1 complex; assay: SPR Biacore 8K, Fab over captured antigen
Description: A Biacore 8K system was employed to determine the monovalent binding affinity and the kinetic parameters for antigen binding of test antibodies. Association and dissociation kinetics of Fab fragments SR-AB42-HuFab, SR-AB63-HuFab and SR-AB43-HuFab to antigen complexes were measured, and resulting ka, kd and KD are provided below. Briefly, the binding kinetics were evaluated by surface plasmon resonance using Biacore 8K (GE Healthcare). Biotinylated capture antigens were immobilized to the chip (10 nM, ˜200 RU loading). A Biotin CAPture sensor chip was used to capture the biotinylated antigens. […] 0 nM was used as a reference. […] 0 nM was used as a reference. Multi-cycle kinetics was employed where each analyte concentration was injected in a separate cycle and the sensor chip surface was regenerated after each cycle. A11 the assays were carried out in freshly prepared 1× HBS-EP+ buffer (10 mM HEPES, 150 mM NaCl, 3 mM EDTA, 0.05% Tween20, pH 7.4). Data were fit globally to a 1:1 binding model to obtain the kinetic parameters. The sensorgram for 0 nM analyte concentration was used as reference.

T4 sequence (Q14766 347-1721 limits assumed, chain 1 of 2): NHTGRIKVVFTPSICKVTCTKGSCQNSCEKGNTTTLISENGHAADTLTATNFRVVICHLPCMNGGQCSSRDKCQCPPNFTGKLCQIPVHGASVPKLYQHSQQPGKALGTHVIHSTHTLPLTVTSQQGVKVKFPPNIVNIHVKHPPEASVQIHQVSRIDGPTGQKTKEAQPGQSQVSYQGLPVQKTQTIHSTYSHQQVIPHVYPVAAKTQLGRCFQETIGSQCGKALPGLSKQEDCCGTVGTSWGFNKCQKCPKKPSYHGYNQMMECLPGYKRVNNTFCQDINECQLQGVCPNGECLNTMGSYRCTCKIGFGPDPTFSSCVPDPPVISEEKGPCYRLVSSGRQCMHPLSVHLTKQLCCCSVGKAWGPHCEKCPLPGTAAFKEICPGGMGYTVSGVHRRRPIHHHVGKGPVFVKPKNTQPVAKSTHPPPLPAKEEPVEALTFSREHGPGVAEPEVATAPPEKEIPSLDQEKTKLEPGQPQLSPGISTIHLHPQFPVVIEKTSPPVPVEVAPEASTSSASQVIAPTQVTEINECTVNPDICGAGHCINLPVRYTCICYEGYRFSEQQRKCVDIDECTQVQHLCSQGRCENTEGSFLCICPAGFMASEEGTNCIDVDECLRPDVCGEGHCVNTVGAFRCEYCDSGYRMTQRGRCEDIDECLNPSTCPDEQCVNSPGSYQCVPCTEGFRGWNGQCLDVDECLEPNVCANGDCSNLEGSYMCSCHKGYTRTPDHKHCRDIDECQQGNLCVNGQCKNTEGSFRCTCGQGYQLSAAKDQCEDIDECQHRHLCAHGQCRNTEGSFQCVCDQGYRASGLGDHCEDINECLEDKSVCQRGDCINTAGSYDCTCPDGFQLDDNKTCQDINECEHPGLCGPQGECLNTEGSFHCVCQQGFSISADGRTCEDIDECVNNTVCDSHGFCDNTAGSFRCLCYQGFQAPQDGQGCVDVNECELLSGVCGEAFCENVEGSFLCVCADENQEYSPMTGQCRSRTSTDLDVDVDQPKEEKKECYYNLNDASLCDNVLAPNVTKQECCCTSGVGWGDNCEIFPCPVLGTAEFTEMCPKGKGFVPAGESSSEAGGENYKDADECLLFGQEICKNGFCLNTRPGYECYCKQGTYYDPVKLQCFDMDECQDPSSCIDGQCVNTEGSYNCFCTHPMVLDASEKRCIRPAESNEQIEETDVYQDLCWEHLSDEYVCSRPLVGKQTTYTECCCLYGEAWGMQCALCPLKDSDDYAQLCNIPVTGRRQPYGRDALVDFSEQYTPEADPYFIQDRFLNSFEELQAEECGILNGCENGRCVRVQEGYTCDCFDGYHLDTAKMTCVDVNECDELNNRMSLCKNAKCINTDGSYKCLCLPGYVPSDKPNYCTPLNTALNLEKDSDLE
T4 sequence (P01137 30-390 limits assumed, chain 2 of 2): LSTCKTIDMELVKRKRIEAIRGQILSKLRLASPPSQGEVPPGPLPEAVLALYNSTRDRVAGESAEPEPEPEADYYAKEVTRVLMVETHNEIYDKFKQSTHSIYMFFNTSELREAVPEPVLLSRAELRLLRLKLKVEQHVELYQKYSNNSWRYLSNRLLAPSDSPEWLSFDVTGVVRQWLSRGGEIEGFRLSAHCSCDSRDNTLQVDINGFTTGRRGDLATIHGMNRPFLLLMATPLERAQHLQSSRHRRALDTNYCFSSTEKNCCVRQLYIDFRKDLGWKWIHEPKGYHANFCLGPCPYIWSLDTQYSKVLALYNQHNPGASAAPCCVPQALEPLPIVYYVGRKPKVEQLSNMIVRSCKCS
T2 sequence (Q8CG19 339-1712 limits assumed, chain 1 of 2): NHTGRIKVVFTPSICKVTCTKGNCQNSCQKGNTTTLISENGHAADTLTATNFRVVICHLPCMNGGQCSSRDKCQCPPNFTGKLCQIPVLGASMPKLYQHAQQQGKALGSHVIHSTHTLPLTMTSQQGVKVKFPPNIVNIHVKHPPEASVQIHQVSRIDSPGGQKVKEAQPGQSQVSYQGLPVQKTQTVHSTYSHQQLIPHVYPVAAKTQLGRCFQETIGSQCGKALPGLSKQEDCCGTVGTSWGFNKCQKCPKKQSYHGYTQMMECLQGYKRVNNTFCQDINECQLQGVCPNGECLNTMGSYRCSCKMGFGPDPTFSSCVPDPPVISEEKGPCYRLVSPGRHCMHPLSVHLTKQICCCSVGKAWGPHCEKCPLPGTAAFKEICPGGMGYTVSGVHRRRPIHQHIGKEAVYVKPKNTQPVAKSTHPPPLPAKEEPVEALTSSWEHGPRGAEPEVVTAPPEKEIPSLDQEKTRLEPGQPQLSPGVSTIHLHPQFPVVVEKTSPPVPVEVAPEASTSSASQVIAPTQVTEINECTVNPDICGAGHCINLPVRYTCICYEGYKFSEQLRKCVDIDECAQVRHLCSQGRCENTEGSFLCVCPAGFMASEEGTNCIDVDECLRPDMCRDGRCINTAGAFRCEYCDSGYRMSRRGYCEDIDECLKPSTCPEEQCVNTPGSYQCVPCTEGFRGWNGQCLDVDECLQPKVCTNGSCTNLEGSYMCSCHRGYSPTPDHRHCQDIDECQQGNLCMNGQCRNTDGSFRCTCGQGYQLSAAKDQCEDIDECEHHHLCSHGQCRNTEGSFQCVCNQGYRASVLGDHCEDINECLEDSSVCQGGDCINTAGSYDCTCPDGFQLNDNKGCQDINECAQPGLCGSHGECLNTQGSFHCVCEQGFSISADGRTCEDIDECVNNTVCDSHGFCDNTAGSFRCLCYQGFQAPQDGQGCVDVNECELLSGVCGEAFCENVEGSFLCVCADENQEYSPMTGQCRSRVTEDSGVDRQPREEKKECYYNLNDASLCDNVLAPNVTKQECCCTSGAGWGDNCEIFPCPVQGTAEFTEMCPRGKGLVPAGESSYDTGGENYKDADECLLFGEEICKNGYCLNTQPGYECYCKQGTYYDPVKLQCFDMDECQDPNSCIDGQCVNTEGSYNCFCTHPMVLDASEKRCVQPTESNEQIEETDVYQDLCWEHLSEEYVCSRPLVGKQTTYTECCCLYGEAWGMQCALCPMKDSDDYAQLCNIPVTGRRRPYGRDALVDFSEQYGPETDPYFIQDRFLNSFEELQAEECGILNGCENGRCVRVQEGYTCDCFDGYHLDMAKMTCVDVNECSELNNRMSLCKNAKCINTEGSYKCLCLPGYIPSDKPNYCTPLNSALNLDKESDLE
T2 sequence (P04202 30-390 limits assumed, chain 2 of 2): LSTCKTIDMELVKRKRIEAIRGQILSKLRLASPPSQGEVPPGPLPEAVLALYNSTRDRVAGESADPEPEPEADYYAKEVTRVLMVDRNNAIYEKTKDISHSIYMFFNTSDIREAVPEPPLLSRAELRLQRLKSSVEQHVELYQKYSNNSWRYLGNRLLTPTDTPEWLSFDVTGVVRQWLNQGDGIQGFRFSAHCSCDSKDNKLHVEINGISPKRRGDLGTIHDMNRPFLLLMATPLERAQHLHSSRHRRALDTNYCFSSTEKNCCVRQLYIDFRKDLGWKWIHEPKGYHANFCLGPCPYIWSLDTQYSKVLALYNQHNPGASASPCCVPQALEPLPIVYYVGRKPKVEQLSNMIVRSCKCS
T5 sequence (Q61810 other isoform, or with tags, fused parts or gaps limits assumed, chain 1 of 2): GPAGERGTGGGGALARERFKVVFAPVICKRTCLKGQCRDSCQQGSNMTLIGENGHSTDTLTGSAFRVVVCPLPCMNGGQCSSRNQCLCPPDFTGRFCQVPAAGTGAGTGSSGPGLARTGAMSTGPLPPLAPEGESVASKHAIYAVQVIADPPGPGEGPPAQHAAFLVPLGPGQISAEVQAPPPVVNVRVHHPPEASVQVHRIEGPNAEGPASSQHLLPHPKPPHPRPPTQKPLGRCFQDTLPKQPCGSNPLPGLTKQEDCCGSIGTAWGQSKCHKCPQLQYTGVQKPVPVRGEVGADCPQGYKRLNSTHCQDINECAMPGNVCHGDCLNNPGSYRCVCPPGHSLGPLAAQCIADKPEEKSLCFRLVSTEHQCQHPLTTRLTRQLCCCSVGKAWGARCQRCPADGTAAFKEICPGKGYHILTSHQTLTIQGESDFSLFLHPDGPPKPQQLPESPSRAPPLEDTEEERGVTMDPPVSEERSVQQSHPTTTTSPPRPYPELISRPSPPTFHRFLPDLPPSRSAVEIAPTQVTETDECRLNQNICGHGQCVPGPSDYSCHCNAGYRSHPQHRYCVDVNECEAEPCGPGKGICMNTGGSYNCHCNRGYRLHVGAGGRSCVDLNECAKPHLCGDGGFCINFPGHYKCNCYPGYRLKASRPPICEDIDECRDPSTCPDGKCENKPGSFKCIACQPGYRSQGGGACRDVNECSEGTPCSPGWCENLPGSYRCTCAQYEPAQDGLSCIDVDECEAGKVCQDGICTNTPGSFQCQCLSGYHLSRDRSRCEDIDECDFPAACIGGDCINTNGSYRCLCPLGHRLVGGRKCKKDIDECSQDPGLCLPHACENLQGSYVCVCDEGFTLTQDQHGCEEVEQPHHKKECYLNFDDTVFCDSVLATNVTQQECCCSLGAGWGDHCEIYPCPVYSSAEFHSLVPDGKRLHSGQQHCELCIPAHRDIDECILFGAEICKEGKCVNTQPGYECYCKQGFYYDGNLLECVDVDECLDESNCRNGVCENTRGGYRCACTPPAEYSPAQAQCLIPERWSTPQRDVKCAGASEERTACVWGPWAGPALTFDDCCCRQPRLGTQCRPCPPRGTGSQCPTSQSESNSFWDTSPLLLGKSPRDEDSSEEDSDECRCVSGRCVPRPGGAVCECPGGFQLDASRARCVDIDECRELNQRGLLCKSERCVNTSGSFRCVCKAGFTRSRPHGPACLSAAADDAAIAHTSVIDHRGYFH
T5 sequence (P04202 30-390 limits assumed, chain 2 of 2): as the sequence (P04202 30-390 limits assumed, chain 2 of 2) above
T3 sequence (P01137 30-390): as the sequence (P01137 30-390 limits assumed, chain 2 of 2) above

Binder | Kd [1] | IC50, mLTBP1 assay (CAGA12 luciferase) [2] | IC50, endogenous hLTBP assay (CAGA12 luciferase) [3] | Kd [4] | Kd [5] | koff [5] | kon [5] | Kd [6] | Kd [7] | Kd [8] | koff [8] | kon [8] | binding result [9] | IC50, mLTBP1 assay (CAGA12 luciferase) [10] | IC50, endogenous hLTBP assay (CAGA12 luciferase) [11] | Kd [12] | koff [12] | kon [12]
B1 | 11.2 nM | 0.431 nM | 1.26 nM and 1.56 nM | 0.682 nM | 0.412 nM | 9.89e-05 s⁻¹ | 240000 M⁻¹ s⁻¹ | 11.2 nM | 0.589 nM | 0.221 nM | 6.81e-05 s⁻¹ | 308000 M⁻¹ s⁻¹ |  |  |  |  |  | 
B2 | 73.5 nM | 0.423 nM | 0.909 nM | 0.417 nM | 0.231 nM | 6e-05 s⁻¹ | 259000 M⁻¹ s⁻¹ | 73.5 nM | 0.45 nM | 0.179 nM | 6.68e-05 s⁻¹ | 372000 M⁻¹ s⁻¹ |  |  |  |  |  | 
B3 | 36.1 nM | 0.543 nM | 1.93 nM | 0.384 nM | 0.328 nM | 0.000118 s⁻¹ | 360000 M⁻¹ s⁻¹ | 36.1 nM | 0.325 nM | 0.139 nM | 7.58e-05 s⁻¹ | 545000 M⁻¹ s⁻¹ |  |  |  |  |  | 
B4 | 8.42 nM |  |  | 0.391 nM | 0.357 nM | 0.000117 s⁻¹ | 327000 M⁻¹ s⁻¹ | 8.42 nM | 0.331 nM | 0.145 nM | 7.26e-05 s⁻¹ | 502000 M⁻¹ s⁻¹ |  |  |  |  |  | 
B5 | 389 nM | 0.479 nM | 1.01 nM | 0.232 nM | 0.205 nM | 6e-05 s⁻¹ | 292000 M⁻¹ s⁻¹ | 389 nM | 0.342 nM | 0.136 nM | 6e-05 s⁻¹ | 441000 M⁻¹ s⁻¹ |  |  |  |  |  | 
B6 |  |  |  | 1.08 nM | 0.401 nM | 6e-05 s⁻¹ | 150000 M⁻¹ s⁻¹ |  | 1.16 nM | 0.333 nM | 6.07e-05 s⁻¹ | 182000 M⁻¹ s⁻¹ | no binding (tested: 200 nM) | 0.333 nM | 2.1 nM |  |  | 
B7 | 764 nM |  |  | 0.404 nM | 0.296 nM | 6e-05 s⁻¹ | 203000 M⁻¹ s⁻¹ | 764 nM | 0.717 nM | 0.235 nM | 6e-05 s⁻¹ | 255000 M⁻¹ s⁻¹ |  | 0.409 nM | 1.54 nM |  |  | 
B8 |  |  |  | 0.359 nM | 0.389 nM | 6e-05 s⁻¹ | 154000 M⁻¹ s⁻¹ |  | 1.05 nM | 0.259 nM | 6e-05 s⁻¹ | 232000 M⁻¹ s⁻¹ |  | 0.271 nM | 1.43 nM |  |  | 
B9 | 212 nM |  |  | 0.21 nM | 0.214 nM | 6e-05 s⁻¹ | 280000 M⁻¹ s⁻¹ | 212 nM | 0.407 nM | 0.146 nM | 6e-05 s⁻¹ | 410000 M⁻¹ s⁻¹ |  | 0.3 nM | 1.51 nM |  |  | 
B10 | 195 nM |  |  | 0.193 nM | 0.193 nM | 6e-05 s⁻¹ | 310000 M⁻¹ s⁻¹ | 195 nM | 0.269 nM | 0.122 nM | 6e-05 s⁻¹ | 491000 M⁻¹ s⁻¹ |  | 0.264 nM | 2.25 nM |  |  | 
B11 |  |  |  |  |  |  |  |  |  |  |  |  |  |  |  | 0.0489 nM | 0.000126 s⁻¹ | 2.58e+06 M⁻¹ s⁻¹
B12 |  |  |  |  |  |  |  |  |  |  |  |  |  |  |  | 0.133 nM | 0.000181 s⁻¹ | 1.35e+06 M⁻¹ s⁻¹
B13 |  |  |  |  |  |  |  |  |  |  |  |  |  |  |  | 0.0521 nM | 0.000162 s⁻¹ | 3.11e+06 M⁻¹ s⁻¹
B14 |  |  |  |  |  |  |  |  |  |  |  |  |  |  |  | 0.0509 nM | 0.00013 s⁻¹ | 2.55e+06 M⁻¹ s⁻¹
B15 |  |  |  |  |  |  |  |  |  |  |  |  |  |  |  | 0.051 nM | 0.00012 s⁻¹ | 2.35e+06 M⁻¹ s⁻¹
B16 |  |  |  |  |  |  |  |  |  |  |  |  |  |  |  | 0.132 nM | 0.000155 s⁻¹ | 1.17e+06 M⁻¹ s⁻¹
